The target of the assay is AlexaFluor594-tagged α-SYN pre-formed fibrils (PFFs) (human) (UniProt P37840). The assay is described as follows: two-color coincidence detection.

For the substance “[…]1 (from UniProt Q9H0R8 1-117) (natural protein)”, the relative presence of GFP species in the aggregates came to 0.14.
